± gives the uncertainty stated by the source.
Assay: self-splicing fitness, log relative to wild type (ln ratio); higher = more splicing; Tetrahymena group I intron in knt gene, E. coli kanamycin selection, DiMSum; sequences stand for … in CUCUCU…GGAGGGAAAAGUUAUCAGGCAUGCACCUGGUAGCUAGUCUUUAAACCAAUAGAUUGCAUCGGUUUAAAAGGCAAGACCGUCAAAUUGCGGGAAAGGGGUCAACAGCCGUUCAGUACCAAGUCUCAGGGGAAACUUUGAGAUGGCCUUGCAAAGGGUAUGGUAAUAAGCUGACGGACAUGGUCCUAACCACGCAGCCAAGUCCUAAGUCAACAGAUCUUCUGUUGAUAUGGAUGCAGUUCACAGACUAAAUGUCGGUCGGGGAAGAUGUAUUCUUCUCAUAAGAUAUAGUCGGACCUCUCCUUAAUGGGAGCUAGCGGAUGAAGUGAUGCAACACUGGAGCCGCUGGGAACUAAUUUGUAUGCGAAAGUAUAUUGAUUAGUUUUGGAGUACUCGUGGUCG
Procedure, shortened: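 A randomised library covering all eight P1ex-region intron nucleotides was built with the intron in the knt kanamycin-resistance gene on pET-22b(+) and held in E. coli BL21(DE3). Cells were grown overnight at 37°C or 30°C on LB agar, with or without 25 μg/mL kanamycin, plus 100 μg/mL carbenicillin, 50 μM IPTG and 0.2% rhamnose, and pooled colonies were amplicon-sequenced on an Illumina HiSeq 2500. DiMSum fitness is the error-weighted combination of wild-type-normalised replicate fold changes, kanamycin versus none.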

| Sequence | self-splicing fitness (ln) (30 °C) | self-splicing fitness (ln) (37 °C) |
| --- | --- | --- |
| UAUUAGCAAUAUUACGAUGU | -3.01 ± 0.23 | -1.06 ± 0.15 |
| UAUUAGCAAUAUUACGCAAG | -2.29 ± 0.16 | -1.8 ± 0.18 |
| UAUUAGCAAUAUUACGCAUC | -3.67 ± 0.31 | -1.7 ± 0.3 |
| UAUUAGCAAUAUUACGCCCG | 0.243 ± 0.36 | 1.09 ± 0.36 |
| UAUUAGCAAUAUUACGCGUA | -1.95 ± 0.16 | -0.462 ± 0.12 |
| UAUUAGCAAUAUUACGCUGC | -2.92 ± 0.27 | -2.59 ± 0.49 |
| UAUUAGCAAUAUUACGGAAU | -4.02 ± 0.33 | -0.66 ± 0.19 |
| UAUUAGCAAUAUUACGGACA | -1.16 ± 0.2 | 0.703 ± 0.28 |
| UAUUAGCAAUAUUACGGACU | -2.33 ± 0.31 | -1.47 ± 0.4 |
| UAUUAGCAAUAUUACGGAGU | -3.84 ± 0.43 | -2.01 ± 0.29 |
| UAUUAGCAAUAUUACGGAUA | – | -0.897 ± 0.46 |
| UAUUAGCAAUAUUACGGAUC | -1.65 ± 0.18 | -0.508 ± 0.28 |
| UAUUAGCAAUAUUACGGUAU | -3.6 ± 0.29 | -2.26 ± 0.31 |
| UAUUAGCAAUAUUACGGUUG | -0.953 ± 0.15 | -0.107 ± 0.17 |
| UAUUAGCAAUAUUACGUACU | -0.305 ± 0.13 | -0.224 ± 0.16 |
| UAUUAGCAAUAUUACGUAUC | -3.31 ± 0.24 | -2.47 ± 0.29 |
| UAUUAGCAAUAUUACGUCGG | -1.21 ± 0.12 | -0.795 ± 0.15 |
| UAUUAGCAAUAUUACGUGAC | -2.92 ± 0.42 | -1.82 ± 0.27 |
| UAUUAGCAAUAUUACGUGGA | -2.75 ± 0.32 | -0.0772 ± 0.19 |
| UAUUAGCAAUAUUACGUGGG | -4.06 ± 0.27 | -2.44 ± 0.17 |
| UAUUAGCAAUAUUACGUUAC | -3.17 ± 0.23 | -2.86 ± 0.32 |
| UCAAAGCAAUAUUACGAAGG | -2.26 ± 0.1 | -1.05 ± 0.13 |
| UCAAAGCAAUAUUACGAAUU | -3.32 ± 0.25 | -1.65 ± 0.16 |
| UCAAAGCAAUAUUACGACCG | -0.525 ± 0.15 | 0.396 ± 0.21 |
| UCAAAGCAAUAUUACGACGA | -0.51 ± 0.074 | 0.278 ± 0.095 |

| Sequence | self-splicing fitness (ln) (30 °C) | self-splicing fitness (ln) (37 °C) |
| --- | --- | --- |
| UCAAAGCAAUAUUACGACUG | -0.4 ± 0.086 | -0.859 ± 0.11 |
| UCAAAGCAAUAUUACGAGGU | -3.05 ± 0.13 | -2.14 ± 0.14 |
| UCAAAGCAAUAUUACGCACA | -0.843 ± 0.079 | -0.191 ± 0.082 |
| UCAAAGCAAUAUUACGCAGA | -3.13 ± 0.21 | -2.64 ± 0.16 |
| UCAAAGCAAUAUUACGCCUG | -0.562 ± 0.066 | -0.293 ± 0.091 |
| UCAAAGCAAUAUUACGCUAC | -2.96 ± 0.46 | -2.22 ± 0.37 |
| UCAAAGCAAUAUUACGGAUC | -3.94 ± 0.41 | -3.23 ± 0.4 |
| UCAAAGCAAUAUUACGGCCG | -0.434 ± 0.1 | 0.158 ± 0.17 |
| UCAAAGCAAUAUUACGGUAC | -3.28 ± 0.16 | -2.71 ± 0.22 |
| UCAAAGCAAUAUUACGGUUG | -1.38 ± 0.086 | -0.732 ± 0.12 |
| UCAAAGCAAUAUUACGUAAA | -1.73 ± 0.13 | -1.94 ± 0.21 |
| UCAAAGCAAUAUUACGUACA | -1.2 ± 0.14 | -0.562 ± 0.16 |
| UCAAAGCAAUAUUACGUAUU | -3.03 ± 0.14 | -2.13 ± 0.17 |
| UCAAAGCAAUAUUACGUCAG | -1.75 ± 0.086 | -0.944 ± 0.097 |
| UCAAAGCAAUAUUACGUCCG | -0.781 ± 0.12 | -0.625 ± 0.16 |
| UCAAAGCAAUAUUACGUCGA | -0.83 ± 0.077 | -0.792 ± 0.081 |
| UCAAAGCAAUAUUACGUGCC | -2.35 ± 0.18 | -1.57 ± 0.39 |
| UCAAAGCAAUAUUACGUUAA | -3.54 ± 0.19 | -0.92 ± 0.12 |
| UCACAGCAAUAUUACGAAUG | -1.77 ± 0.097 | -1.61 ± 0.14 |
| UCACAGCAAUAUUACGAGAA | -3.16 ± 0.34 | -1.68 ± 0.24 |
| UCACAGCAAUAUUACGAGAU | -4.39 ± 0.25 | -2.85 ± 0.24 |
| UCACAGCAAUAUUACGAGUA | -2.02 ± 0.1 | -1.52 ± 0.085 |
| UCACAGCAAUAUUACGAUAU | -2.96 ± 0.22 | -2.67 ± 0.19 |
| UCACAGCAAUAUUACGAUUG | -2.97 ± 0.12 | -1.34 ± 0.11 |
| UCACAGCAAUAUUACGCCUG | -1.21 ± 0.11 | -0.438 ± 0.12 |

| Sequence | self-splicing fitness (ln) (30 °C) | self-splicing fitness (ln) (37 °C) |
| --- | --- | --- |
| UCACAGCAAUAUUACGCGAG | -1.32 ± 0.063 | -0.0838 ± 0.077 |
| UCACAGCAAUAUUACGCGUA | -1.09 ± 0.086 | -0.297 ± 0.082 |
| UCACAGCAAUAUUACGCGUU | -4 ± 0.21 | -2.13 ± 0.17 |
| UCACAGCAAUAUUACGCUUU | -3.36 ± 0.15 | -3.6 ± 0.27 |
| UCACAGCAAUAUUACGGAUA | -2.87 ± 0.16 | -1.47 ± 0.12 |
| UCACAGCAAUAUUACGGGUA | -1.93 ± 0.13 | -0.772 ± 0.1 |
| UCACAGCAAUAUUACGGUCA | -0.0483 ± 0.085 | 0.318 ± 0.099 |
| UCACAGCAAUAUUACGUAGG | -1.07 ± 0.055 | -1.05 ± 0.082 |
| UCACAGCAAUAUUACGUAUU | -3.5 ± 0.15 | -2.54 ± 0.14 |
| UCACAGCAAUAUUACGUCAA | -2.7 ± 0.17 | -1.46 ± 0.13 |
| UCACAGCAAUAUUACGUCCU | -3.15 ± 0.19 | -2.27 ± 0.15 |
| UCACAGCAAUAUUACGUCUU | -1.68 ± 0.12 | -2.4 ± 0.16 |
| UCACAGCAAUAUUACGUGAG | -0.886 ± 0.03 | -0.396 ± 0.052 |
| UCACAGCAAUAUUACGUGCC | -1.42 ± 0.11 | 0.00553 ± 0.12 |
| UCAGAGCAAUAUUACGACUU | -2.45 ± 0.19 | -3.12 ± 0.38 |
| UCAGAGCAAUAUUACGCAGA | -2.96 ± 0.27 | -1.47 ± 0.21 |
| UCAGAGCAAUAUUACGCCAU | – | -1.91 ± 0.29 |
| UCAGAGCAAUAUUACGGCUA | -2.46 ± 0.28 | -2.11 ± 0.24 |
| UCAGAGCAAUAUUACGGGCG | -2.45 ± 0.17 | -2 ± 0.25 |
| UCAGAGCAAUAUUACGGGGG | -2.66 ± 0.23 | -3.15 ± 0.35 |
| UCAGAGCAAUAUUACGGGGU | -3.35 ± 0.23 | -2.88 ± 0.27 |
| UCAGAGCAAUAUUACGUAGU | -3.58 ± 0.43 | -2.88 ± 0.35 |
| UCAGAGCAAUAUUACGUGUU | -4.84 ± 0.27 | -2.27 ± 0.17 |
| UCAUAGCAAUAUUACGAACU | -2.36 ± 0.33 | -2.08 ± 0.26 |
| UCAUAGCAAUAUUACGACUA | -2.82 ± 0.29 | -1.78 ± 0.24 |

| Sequence | self-splicing fitness (ln) (30 °C) | self-splicing fitness (ln) (37 °C) |
| --- | --- | --- |
| UCAUAGCAAUAUUACGAGCA | -0.736 ± 0.2 | -1.11 ± 0.23 |
| UCAUAGCAAUAUUACGCAAA | -2.54 ± 0.25 | -1.72 ± 0.3 |
| UCAUAGCAAUAUUACGCCGA | -0.67 ± 0.18 | 0.277 ± 0.18 |
| UCAUAGCAAUAUUACGCCGG | -1.25 ± 0.12 | -0.72 ± 0.12 |
| UCAUAGCAAUAUUACGCGAU | -1.9 ± 0.22 | – |
| UCAUAGCAAUAUUACGCUGC | -3.13 ± 0.31 | -2.52 ± 0.41 |
| UCAUAGCAAUAUUACGGAAC | -4.02 ± 0.47 | – |
| UCAUAGCAAUAUUACGGCCA | – | -0.442 ± 0.46 |
| UCAUAGCAAUAUUACGGGUG | -1.94 ± 0.093 | -0.795 ± 0.085 |
| UCAUAGCAAUAUUACGGGUU | -4.83 ± 0.36 | -3.34 ± 0.25 |
| UCAUAGCAAUAUUACGGUCG | -1.14 ± 0.083 | -0.0517 ± 0.1 |
| UCAUAGCAAUAUUACGUACU | -4.14 ± 0.19 | -2.96 ± 0.19 |
| UCAUAGCAAUAUUACGUCAG | -2.96 ± 0.18 | -1.36 ± 0.15 |
| UCAUAGCAAUAUUACGUCCA | -1.07 ± 0.16 | -0.442 ± 0.17 |
| UCAUAGCAAUAUUACGUCCC | -2.19 ± 0.49 | – |
| UCAUAGCAAUAUUACGUCGC | -2.62 ± 0.3 | -2.78 ± 0.34 |
| UCCAAGCAAUAUUACGAAAG | -2.45 ± 0.19 | -3.23 ± 0.35 |
| UCCAAGCAAUAUUACGACAG | -3.81 ± 0.35 | -1.47 ± 0.26 |
| UCCAAGCAAUAUUACGACCA | -1.63 ± 0.16 | -0.935 ± 0.17 |
| UCCAAGCAAUAUUACGAUAA | -2.01 ± 0.11 | -0.704 ± 0.11 |
| UCCAAGCAAUAUUACGCAAC | -4.2 ± 0.37 | -3.04 ± 0.31 |
| UCCAAGCAAUAUUACGCAGC | -2.73 ± 0.21 | -2.89 ± 0.32 |

— the supplement of paper PMC7877785
